From article PMC4175578 come the findings set out here.

What is called stoichiometry N is a count of units in the complex or per binding partner.

The assay has as its target N-terminal domain (residues 1-79) of HCV glycoprotein E1 ectodomain, N43Q (Hepatitis C virus, strain H77). Put plainly: SEC-MALS; analytical Superdex S200 10/30 with online static light scattering; protein not deglycosylated, ~4.2 mg/ml. Background: SEC sorts molecules by how far they enter the pores of the column.

In turn, “N-terminal domain (residues 1-79) of HCV glycoprotein E1 ectodomain, N43Q (domain or fragment)” came in with a stoichiometry N of 2.
